The results in this text go back to patent publication US20050255553A1 (LUDWIG INSTITUTE FOR CANCER RESEARCH, published 2005).

For assay [1], the target named is T1, HLA-B44 (HLA-B*4403) (human).
T1 construct: whole, on cells; MHC class I molecule on BAGM-EBV cells or transfected COS-7 cells
Description: lysis of peptide-pulsed BAGM-EBV cells by TIL 2.4. Here is the method:
FIG. 4 depicts the lysis of BAGM-EBV cells pulsed with the MAGE.C2.B44 peptides. […] TIL2.4 was added at a ratio of 15:1. The chromium release was measured after 4 hours. The nonapeptide (-▪-) is the antigenic sequence recognized by the TIL.
To identify the antigenic peptide, several minigenes were generated by amplifying different fragments of the MAGE-C2 cDNA by PCR. The PCR products were cloned into plasmid vector pCDNA3.1/His by TOPO T/A cloning (MAGE-C2/HLA-A2 patent and Ma W et al., Int. J. Cancer: in press, incorporated herein by reference). COS-7 cells were transfected with vectors encoding HLA-B44 and vectors encoding the different minigenes described above. TIL 2.4 were added to the transfected cells and TNF production was measured (FIG. 3X). […] Candidate peptides bearing the binding motif for HLA-B44 were then synthesized and pulsed onto BAGM-EBV cells. These pulsed cells were combined with TIL2.4 and assayed for lysis. […] The nonapeptide and the decapeptide were then synthesized and assayed individually.

The target of assay [2] is T1, HLA-B44 (HLA-B*4403). The experiment in a line: concluded from lysis of peptide-pulsed BAGM-EBV cells and TNF assays with HLA-B44 transfectants; no direct binding assay.

As to SESIKKKVLEF (Synthetic peptide) [MAGE-C2 11-mer peptide SESIKKKVLEF (SEQ ID NO: 106)], in the assay with HLA-B44 (HLA-B*4403) [1], the binding result is listed as “binds”.

B1: MAGE-C2 nonapeptide SESIKKKVL (SEQ ID NO: 107) (peptide)
peptide: SESIKKKVL
notes: Synthetic peptide; also called MAGE.C2 antigenic peptide
With B1, the binding result with HLA-B44 (HLA-B*4403) [2] is listed as “binds”.
